From article PMC12507517

Biological target: RelA homodimer (UniProt Q04206)
Assay: BLI
Details: EMSA: 10 mM Tris-HCl pH 7.5, 50 mM NaCl, 10% glycerol, 1% NP-40, 1 mM EDTA, 0.1 mg/mL salmon sperm DNA, room temp; BLI: 25 mM Tris-HCl pH 7.5, 150 mM NaCl …

Chain of RelA homodimer (Q04206 whole entry): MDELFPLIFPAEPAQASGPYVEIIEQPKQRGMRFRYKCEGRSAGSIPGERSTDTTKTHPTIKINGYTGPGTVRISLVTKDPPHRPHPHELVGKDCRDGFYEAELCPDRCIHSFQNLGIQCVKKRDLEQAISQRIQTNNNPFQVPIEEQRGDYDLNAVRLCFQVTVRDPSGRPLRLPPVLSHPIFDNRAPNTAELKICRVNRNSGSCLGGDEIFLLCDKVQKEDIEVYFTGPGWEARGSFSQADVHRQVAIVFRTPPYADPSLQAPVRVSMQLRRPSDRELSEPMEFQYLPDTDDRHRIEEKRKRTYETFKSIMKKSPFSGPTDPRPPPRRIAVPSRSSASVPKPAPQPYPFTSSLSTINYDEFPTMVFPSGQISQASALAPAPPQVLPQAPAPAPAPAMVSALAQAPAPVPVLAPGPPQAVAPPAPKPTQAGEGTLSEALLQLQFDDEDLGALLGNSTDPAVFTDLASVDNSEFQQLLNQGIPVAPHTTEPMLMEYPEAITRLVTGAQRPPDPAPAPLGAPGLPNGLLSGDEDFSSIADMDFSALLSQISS

| Substance | Kd |
| --- | --- |
| IFN-b1 kB (strong) | 27 nM |
| STX11 kB (weak) | 250 nM |
